These substances were tested against KGF receptor (membrane preparations from Balb/MK mouse epidermal keratinocytes) (mouse) (UniProt P21803) (assay: radioreceptor competition against 125I-labeled E. coli KGF, Balb/MK membrane preparations).
Sequence of KGF receptor (membrane preparations from Balb/MK mouse epidermal keratinocytes) (mouse) (P21803 22-821): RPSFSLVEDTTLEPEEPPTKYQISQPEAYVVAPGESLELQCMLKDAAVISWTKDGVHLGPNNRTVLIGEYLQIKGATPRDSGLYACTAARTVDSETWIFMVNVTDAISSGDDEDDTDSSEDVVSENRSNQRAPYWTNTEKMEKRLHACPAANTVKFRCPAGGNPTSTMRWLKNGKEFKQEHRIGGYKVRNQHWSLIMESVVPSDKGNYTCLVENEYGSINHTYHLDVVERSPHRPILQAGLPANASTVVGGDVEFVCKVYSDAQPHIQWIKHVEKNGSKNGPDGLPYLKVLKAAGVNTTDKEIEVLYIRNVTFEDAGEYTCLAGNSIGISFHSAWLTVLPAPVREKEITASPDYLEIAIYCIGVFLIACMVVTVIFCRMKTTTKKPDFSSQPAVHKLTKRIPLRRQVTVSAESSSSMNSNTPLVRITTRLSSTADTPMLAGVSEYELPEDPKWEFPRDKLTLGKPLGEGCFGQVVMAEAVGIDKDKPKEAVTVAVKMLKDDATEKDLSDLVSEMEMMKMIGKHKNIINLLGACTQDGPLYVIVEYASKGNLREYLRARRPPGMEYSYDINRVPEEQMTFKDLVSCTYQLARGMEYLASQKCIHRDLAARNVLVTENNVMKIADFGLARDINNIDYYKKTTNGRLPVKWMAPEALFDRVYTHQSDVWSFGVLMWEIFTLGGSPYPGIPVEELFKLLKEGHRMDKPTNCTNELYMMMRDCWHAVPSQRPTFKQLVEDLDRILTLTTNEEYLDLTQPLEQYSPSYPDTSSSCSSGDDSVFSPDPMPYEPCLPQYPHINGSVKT

Row | KGF concentration to compete receptor binding with I^125-labeled KGF at 60% uncompetition rate [ng/mL] | Substance
1 | 93.5 | KGF-a (CHO-derived glycosylated recombinant KGF, 25-29 kDa form) (ligand)
2 | 65.8 | E. coli-derived, full-length native KGF (keratinocyte growth factor) (ligand)
3 | 89.1 | KGF-b (CHO-derived N-terminally truncated unglycosylated KGF, about 17 kDa, cleaved at Arg23-Ser24) (ligand)

Reference: patent publication EP0785948B1
